Test results from article PMC9602339, “Diaminopimelic Acid Metabolism by Pseudomonadota in the Ocean” (Microbiology Spectrum, 2022).

B1: LysA (DAP decarboxylase) from strain A40-3 (Thalassospira sp. A40-3) (protein)
chain: MNHFEYINSELYAEGVSIREMADKVGTPFFCYSTATLERHYKVYADAFDGLDATVCFAVKANSNQAVLKTLANLGAGADVVSVGEMRRALRAGMPPAKIIFSGVGKADAEMREALDADIAQINVESIPELVELNRVAIDMGKKARIALRVNPHVDAKTHEKIATGKAENKFGIDWTRAIEVYREAAAMDGIEVTGIAMHIGSQLTDLAPFREAFTRLAGLVEQLRSEGIDIRNLDLGGGLGIAYQGETPPLPDAYGQMVRETVGHLGCHITLEPGRLIAGNAGIMVSRVMYIKDGEAKRFVILDAAMNDLIRPTLYGAYHEIIPVDEQTDGDKQVKVDVVGPVCETGDTFGKDRDLPDDLKAGDLVAVMSAGAYGAVMSSTYNTRALTPEVLVKGNNFAIVRPRQEIDDLINMDLVPSWLSNA
notes: full length 423 residues
B2: LysA (DAP decarboxylase) from strain A40-4 (Halomonas sp. A40-4) (protein)
chain: MDHFNDRDGLLFAEDVPLDRIAETYGTPCYVYSKATLTRHFRAYTEALGGHPHLICYAVKANSNLAVLGLLAKLGAGFDIVSVGELERVLKAGGDPDKVVFSGVAKQPHEMARALEVGIKCFNVESRPELERLNAVAGELGKMAPVSLRVNPDVDAGTHPYISTGLKDNKFGIPVDDALTVYELAASLPNLQVKGLDCHIGSQLTETAPFLDALERLLVLMERLRERGIEIDHLDLGGGLGVPYRDETPPHPFDYASQLLSRLSRWEGGEQLTLLFEPGRSIAANAGIMLTRVEFLKPGETKNFAIVDAAMNDLIRPALYQAWQAIVPVDTRSARETSIYDVVGPVCETGDFLGQERELAIAAGDLLAVRSAGAYGFVMASNYNSRPRPAEVMVDGERCHLVRARETLESLWSGEALLPEGGC
notes: lysA complementation fragment 1,272 bp

Columns and labels:
[1] = substrate: NC(CCCC(N)C(=O)O)C(=O)O; assay: initial rates, Lys production by amino acid analyzer; nonlinear Michaelis-Menten fit; assay type: biochemical, Thalassospira sp. A40-3; conditions: 0 to 12 mM DAP, 200 mM Tris-HCl pH 8.0, PLP (100 mM [sic]), 25°C, DAP stereoisomer not given
Description: initial rates, Lys production by amino acid analyzer; nonlinear Michaelis-Menten fit on LysA (DAP decarboxylase) from strain A40-3

[2] = substrate: NC(CCCC(N)C(=O)O)C(=O)O; assay: as above; assay type: biochemical, Halomonas sp. A40-4; conditions: 0 to 12 mM DAP, 200 mM Tris-HCl pH 8.0, PLP (100 mM [sic]), 25°C, DAP stereoisomer not given
Description: initial rates, Lys production by amino acid analyzer; nonlinear Michaelis-Menten fit on LysA (DAP decarboxylase) from strain A40-4

Protein | Km [1] [µM] | Vmax [1] [µmol/min/mg] | kcat [1] [s⁻¹] | Km [2] [µM] | Vmax [2] [µmol/min/mg] | kcat [2] [s⁻¹]
B1 | 1890 ± 340 | 37.7 | 26.9 ± 2.42 |  |  | 
B2 |  |  |  | 720 ± 140 | 58.3 | 41.6 ± 0.88
